Assay results from patent US20130071431A1, “Method for Preserving Polypeptides Using A Sugar and Polyethyleneimine” (Stabilitech Ltd., priority 2008, published 2013).

Key:
[1] = Luciferase assay with luciferin reagent, freeze-dried with BSA (Example 10); type: biochemical
Protocol: Luciferase stock was purchased from Promega Corporation (code E1701) and consisted of 1 mg of purified protein at a concentration of 13.5 mg/ml, correlating to 2.13×10^−4M using an approximate molecular weight of 60 kDa. The stock was thawed and refrozen (untouched, without addition of any excipients) at −45° C. as 44 aliquots. These aliquots were subsequently used for all experiments.
Luciferin was purchased from Promega Corporation as a kit that also included ATP (code E1500). This kit shall henceforth be referred to as luciferin reagent and consisted of pairs of vials that required mixing before use. One vial contained a lyophilised powder and the other 10 ml of a frozen liquid. To produce stocks, these vials were mixed and then refrozen as 1 ml aliquots at −20° C. in standard 1.5 ml Eppendorf tubes. Vials and reconstituted luciferin reagent were stored at −20° C. in an opaque box and only removed under conditions of near-darkness. […]
The luciferase assay involved the mixing of various concentrations of luciferase with an undiluted aliquot of luciferin reagent in black opaque 96 well plates. The initial (linear) phase of this luminogenic reaction was then immediately quantified by a luminometer. As per the manufacturer's recommendation, luciferase samples were of a 100 μl volume and luminescence was initiated by addition of 100 μl of luciferin reagent. […]

[2] = Luciferase luminescence assay after freeze-drying (Example 4); type: biochemical; conditions: freeze-dried in excipient of 1.092M sucrose, 0.0499M stachyose and 27 nM, 2.7 nM or 0.27 nM PEI
Protocol: The final concentrations of PEI and sugars were: • PEI: 27 nM, 2.7 nM or 0.27 nM • sucrose: 1.092 M, and • stachyose: 0.0499M.
All vials were set up in triplicate.
The vials contained a free-flowing freeze-dried powder. The powder was reconstituted by adding 1 ml PBS. […] Luciferase assay reagent was added to each well according to manufacturer's instructions and luminescence was read on a Synergy 2 luminometer.

Luciferase: luciferase enzyme purchased from Promega (code E1701 in Example 10)
lyoprotectant effects of sugar mix and PEI on luciferase activity ([1]; both added together before freeze-drying): synergistic
lyoprotectant contribution of excipient component on luciferase activity ([1]; sugar mix or PEI added after freeze-drying): wholly negates its contribution
thermal stability of luciferase (luminescence) [2]: improved thermal stability
